Data from PMC3267858 (Nature, 2012).

B1: C-linker/CNBHD of zebrafish ELK channel (amino acids Q543-L750) (domain or fragment, Danio rerio (zebrafish), UniProt A8WHX9 543-750, looked up)
chain: QRMYSRRSLYHTRTKDLKDFIRVHRLPKALAQRMLECFQTTWSVNNGIDVSELLKDFPDELRADIAMHLNKELLQLPLFESASRGCLRSLSLIIKTSFCAPGEFLIRQGDALQAIYFVCSGSMEVLKDNTVLAILGKGDLIGSDSLTKEQVIKTNANVKALTYCDLQYISLKGLREVLRLYPEYAQKFVSEIQHDLTYNLREGSGADL
B2: GFP-tagged C-linker/CNBHD of zELK channels (amino acids Q543-L750) (domain or fragment, Danio rerio (zebrafish), UniProt A8WHX9 543-750, looked up)
chain: B1 chain

Key:
[1] = biological target: the molecule itself; assay: crystal structure
[2] = biological target: the molecule itself; assay: SEC

Protein | stoichiometry N [1] | stoichiometry N [2]
B1 | 2 | 
B2 |  | 2
